For two sequences, activity (fold activation) results are on record in patent US20150093802.

Common to all, as to experiment: one_hybrid
Data set [1] deals with OZ118 (CF877L) (synthetic). The settings on record: bacterial two-hybrid lacZ, SD 0.08.
Data set [2] has as its system OZ108 (CF877L) (synthetic). The settings on record: bacterial two-hybrid lacZ, SD 0.51.
Data set [3] concerns OZ112 (CF877L) (synthetic). The settings on record: bacterial two-hybrid lacZ, SD 0.55.
The subject of data set [4] is OZ109 (CF877L) (synthetic). As to conditions: bacterial two-hybrid lacZ, SD 0.20.
In data set [5] the test system is OZ116 (CF877L) (synthetic). The settings on record: bacterial two-hybrid lacZ, SD 0.38.
The subject of data set [6] is OZ114 (CF877L) (synthetic). The settings on record: bacterial two-hybrid lacZ, SD 0.18.
Data set [7] deals with OZ110 (CF877L) (synthetic). As to conditions: bacterial two-hybrid lacZ, SD 0.15; marked + in table.
Data set [8] concerns OZ107 (CF877L) (synthetic). The settings on record: bacterial two-hybrid lacZ, SD 0.58.
The subject of data set [9] is OZ115 (CF877L) (synthetic). As to conditions: bacterial two-hybrid lacZ, SD 0.12.
The subject of data set [10] is OZ111 (CF877L) (synthetic). As to conditions: bacterial two-hybrid lacZ, SD 1.90; marked + in table.
In data set [11] the test system is OZ117 (CF877L) (synthetic). As to conditions: bacterial two-hybrid lacZ, SD 0.33.
For data set [12], the system named is OZ113 (CF877L) (synthetic). The settings on record: bacterial two-hybrid lacZ, SD 0.20.
The subject of data set [13] is OZ136 (CF877R) (synthetic). The settings on record: bacterial two-hybrid lacZ, SD 0.06.
The subject of data set [14] is OZ124 (CF877R) (synthetic). As to conditions: bacterial two-hybrid lacZ, SD 0.20.
Data set [15] relates to OZ134 (CF877R) (synthetic). The settings on record: bacterial two-hybrid lacZ, SD 0.19.
The test system of data set [16] is OZ137 (CF877R) (synthetic). The settings on record: bacterial two-hybrid lacZ, SD 0.04.
The subject of data set [17] is OZ131 (CF877R) (synthetic). As to conditions: bacterial two-hybrid lacZ, SD 0.12.
Data set [18] has as its system OZ133 (CF877R) (synthetic). As to conditions: bacterial two-hybrid lacZ, SD 0.05.
Data set [19] deals with OZ142 (CF877R) (synthetic). As to conditions: bacterial two-hybrid lacZ, SD 0.16.
In data set [20] the test system is OZ120 (CF877R) (synthetic). The settings on record: bacterial two-hybrid lacZ, SD 0.01.
For data set [21], the system named is OZ140 (CF877R) (synthetic). The settings on record: bacterial two-hybrid lacZ, SD 0.48.
The subject of data set [22] is OZ126 (CF877R) (synthetic). The settings on record: bacterial two-hybrid lacZ, SD 0.28.
The subject of data set [23] is OZ138 (CF877R) (synthetic). The settings on record: bacterial two-hybrid lacZ, SD 0.41.
Data set [24] concerns OZ125 (CF877R) (synthetic). As to conditions: bacterial two-hybrid lacZ, SD 0.85.
Data set [25] has as its system OZ139 (CF877R) (synthetic). As to conditions: bacterial two-hybrid lacZ, SD 0.03.
The test system of data set [26] is OZ135 (CF877R) (synthetic). As to conditions: bacterial two-hybrid lacZ, SD 0.07.
Data set [27] deals with OZ123 (CF877R) (synthetic). The settings on record: bacterial two-hybrid lacZ, SD 0.63.
Data set [28] relates to OZ121 (CF877R) (synthetic). As to conditions: bacterial two-hybrid lacZ, SD 0.19.
Data set [29] has as its system OZ130 (CF877R) (synthetic). As to conditions: bacterial two-hybrid lacZ, SD 0.22.
In data set [30] the test system is OZ129 (CF877R) (synthetic). The settings on record: bacterial two-hybrid lacZ, SD 0.07.
In data set [31] the test system is OZ122 (CF877R) (synthetic). As to conditions: bacterial two-hybrid lacZ, SD 0.59.
Data set [32] concerns OZ128 (CF877R) (synthetic). The settings on record: bacterial two-hybrid lacZ, SD 0.07.
Data set [33] deals with OZ141 (CF877R) (synthetic). As to conditions: bacterial two-hybrid lacZ, SD 0.08.
In data set [34] the test system is OZ127 (CF877R) (synthetic). The settings on record: bacterial two-hybrid lacZ, SD 0.02.
Data set [35] concerns OZ119 (CF877R) (synthetic). As to conditions: bacterial two-hybrid lacZ, SD 0.35.

On to “GTGGAATTA (double strand) [CF877L half-site]”, for which the activity (fold activation) in data set [1] is 3.55; in [2] it was 2.31; in data set [3], 2.52; in data set [4] it was 2.83; in [5], 2.53; in data set [6], 2.95. Also, the activity (fold activation) amounted to 1.61 in data set [7]; 1.92 in data set [8]; 2.71 in data set [9]; 2.2 in [10]; 3.87 in data set [11]; 1.61 in data set [12].
With “GAGTGGTTA (double strand) [CF877R half-site]”, the activity (fold activation) amounted to 2.16 in data set [13]; 4.41 in data set [14]; 3.71 in data set [15]; 2.26 in data set [16]; 2.08 in data set [17]; 3.24 in data set [18]. The activity (fold activation) in [19] was 2.73; in data set [20] it was 2.53; in data set [21], 2.99; in data set [22], 2.57; in data set [23], 2.52; in data set [24], 4. In addition, the activity (fold activation) in data set [25] amounted to 2.74; in data set [26], 2.25; in [27], 5.03; in data set [28], 2.91; in data set [29], 2.47; in data set [30] it was 2.55. Besides, the activity (fold activation) in data set [31] came to 4.72; in data set [32], 2.12; in [33] it was 2.87; in [34], 1.6; in data set [35], 2.78.
